Data: doi:10.1101/2025.03.26.645438

Biological target: Human GLP1R protein (human) (UniProt P43220)
Sequence (P43220 24-463): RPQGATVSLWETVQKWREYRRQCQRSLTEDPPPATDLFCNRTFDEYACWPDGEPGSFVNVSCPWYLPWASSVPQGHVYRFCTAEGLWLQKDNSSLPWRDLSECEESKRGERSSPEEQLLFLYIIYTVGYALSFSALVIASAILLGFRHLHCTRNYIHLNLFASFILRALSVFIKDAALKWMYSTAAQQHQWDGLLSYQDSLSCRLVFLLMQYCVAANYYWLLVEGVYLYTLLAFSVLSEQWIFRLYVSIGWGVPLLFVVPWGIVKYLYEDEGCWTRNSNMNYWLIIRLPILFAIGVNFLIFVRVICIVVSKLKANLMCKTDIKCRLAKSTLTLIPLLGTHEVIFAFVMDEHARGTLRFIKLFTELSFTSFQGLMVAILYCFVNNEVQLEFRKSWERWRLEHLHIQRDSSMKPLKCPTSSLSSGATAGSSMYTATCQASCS

cAMP accumulation (HTRF) in HEK293 cells stably expressing human GLP-1R, EC50: 0.019 nM
Substance: Semaglutide (peptide)
